Reference: patent US20080213277A1 (Amgen, published 2008)
Substitutions are numbered along the chain they refer to. Bridge positions count the residues as written; N and C are the ends. Ends that are not written are not given here.

T1: recombinant cyno hepcidin (SEQ ID NO: 6) (cynomolgus monkey)
T1 construct: also called rcyno hepcidin; rcynoHepc
T1 peptide: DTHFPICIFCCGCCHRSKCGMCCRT

T2: recombinant mouse hepcidin (SEQ ID NO: 80) (mouse, not fully specified)
T2 construct: also called murine hepcidin
T2 peptide: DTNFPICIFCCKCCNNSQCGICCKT

T3: recombinant human prohepcidin (SEQ ID NO: 102) (human)
T3 chain: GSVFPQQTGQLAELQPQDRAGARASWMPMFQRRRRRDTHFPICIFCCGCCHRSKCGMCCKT

T4: hepcidin 20 (SEQ ID NO: 96) (human)
T4 construct: also called Hepc20; hepc20
T4 peptide: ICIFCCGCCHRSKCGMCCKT

B1: murine anti-human hepcidin monoclonal antibody 2.7 (antibody, V domains shown)
VH: QIQLVQSGPELKKPGETVKISCKASGYTFTTYGMSWVKQAPGKGLKWMGWINTYSGVPTYADDFKGRFAFSLETSASTAYLQINNLKNEDTATYFCGRDHYYGEVAYWGQGTLVTVSA
VL: DIVLTQSPASLAVSLGQRATISCRASESVDSYGNSFMHWYQQKPGQPPKLLIYRASNLESGIPARFSGSGSRTDFTLTINPVEADDVATYYCHQSNEEYTFGGGTKLEIK
notes: Mouse hybridoma monoclonal; Murine IgG1 was used as its isotypic control; also called Ab2.7; Ab 2.7
B2: murine anti-human hepcidin monoclonal antibody Ab43 (antibody, V domains shown)
VH: QIQLVQSGPELKKPGETVKISCKASGYTFTTYGMSWVKQAPGKGLKWMGWINTYSGVPTYADDFKGRFAFSLETSASTAYLQINNLKNEDTATYFCASLWYYGRAFDYWGQGTTLTVSS
VL: B1 VL with D1N, R54L, I62V, N80D, V87A, H93Q, S95N, E98D, Y99R
notes: Mouse hybridoma monoclonal; also called mAB 43
B3: murine anti-human hepcidin monoclonal antibody 2.41 (antibody, V domains shown)
VH: B1 VH with Y54S, K65M, G97A, H100R
VL: B1 VL with Y32F, Q42L, T89I, H93Q
notes: Mouse hybridoma monoclonal
B4: human hepcidin (SEQ ID NO: 9), mature, correctly folded (peptide)
peptide: DTHFPICIFCCGCCHRSKCGMCCKT
modifications: disulfide 10-13, 11-19, 14-22, 7-23; not fully specified
notes: 25-residue mature peptide with four disulfides (C7-C23, C10-C13, C11-C19, C14-C22); Recombinant (E. coli or CHO) or synthetic, by assay; also called rhHepc; shHepc
B5: rat anti-human hepcidin monoclonal antibody R9 (antibody, V domains shown)
VH: QVTLKESGPGILQPSQTLSLTCSFSGFSLSTSGICVSWIRQPSGKGLEWLATICWEDSKGYNPSLKNRLTISKDTSNNQAFLKITSVDTADTAIYYCARPLNYGGYSELELDYWGQGVMVTVSS
VL: DIQMTQSPSLLSASVGDRVTLSCKASQNIYKYLNWYQQKLGEAPKLLIYYTNSLQTGIPSRFSGSGSGTDFTLTISSLQPEDVATYYCYQYNSGPTFGAGTKLELK
notes: Rat hybridoma monoclonal; also called mAb R9

Legend:
[1] = molecular target: T1, recombinant cyno hepcidin (SEQ ID NO: 6); assay: KinExA solution equilibrium: fixed antibody + varied rcyno hepcidin, free antibody captured on rcyno hepcidin-coated beads
Description: Reacti-Gel 6× beads (Pierce, Rockford, Ill.) were pre-coated with rcyno hepcidin (SEQ ID NO: 6) and blocked with BSA according to manufacturer's instructions. […] The amount of the bead-bound antibody was quantified by fluorescently (Cy5)-labeled goat anti-murine-IgG (H+L) antibody (Jackson Immuno Research, West Grove, Pa.). The binding signal is proportional to the concentration of free antibody at equilibrium. Dissociation equilibrium constant (KD) was obtained from nonlinear regression of the competition curves using a dual-curve one-site homogeneous binding model (KinExA™ Pro software).

[2] = molecular target: T2, recombinant mouse hepcidin (SEQ ID NO: …); assay: BIAcore solution equilibrium: fixed antibody incubated with varied hepcidin, free antibody read on immobilized hepcidin chip
Description: (§1) Preparation of BIAcore chip surfaces: Immobilization of proteins to a BIAcore was performed according to manufacturer's instructions at a flow rate 10 μL/min of running buffer (DPBS: Dulbecco's Phosphate Buffer Saline1X, GIBCO 14190, with 0.005% Biacore surfactant P-20). The carboxylated matrix of the sensor chip was first activated with a 100 μL injection of 1:1 mixture of EDC (75 mg/mL N-ethyl-N-(dimethylamine-propyl)carbodiimide in water, from BIAcore) and NHS (11.5 mg/mL N-hydroxysuccinimide in water, from Biacore). […] The excess reactive groups of the sensor chip were deactivated with an injection of 100 μL of ethanolamine (1.0M, from Biacore).
(§2) Equilibrium binding analysis of antibody/hepcidin interactions on immobilized hepcidin surface: Fixed concentrations of antibody were incubated with various concentrations of hepcidin at room temperature for several hours before run through the immobilized hepcidin surface. After each sample injection, the surfaces were regenerated by injecting 30 μL […] glycine, pH1.5. The binding signal obtained is proportional to the free antibody in solution at equilibrium. The equilibrium dissociation constant (KD) was calculated from nonlinear regression analysis of the competition curves using a one or dual-curve one-site homogeneous binding model (KinExA™ software, Sapidyne Instruments Inc., Boise Id.).

[3] = molecular target: B4; assay: as above
Description: as §1, §2

[4] = molecular target: T3, recombinant human prohepcidin (SEQ ID …); assay: sandwich immunoassay: Ab2.7 capture, biotinylated rabbit anti-prohepcidin polyclonal detection; the prohepcidin concentration is varied (buffer curves)
Description: In order to reliably assess prohepcidin concentrations, a prohepcidin standard was measured after incubation for 60 minutes at 25° C. in a range of different buffers or sera.

[5] = molecular target: B4; assay: BIAcore: 1 nM antibody over immobilized rhHepc surface, no competitor (reference)
Description: (§3) Recombinant hepcidin was immobilized on a CM5 chip according to manufacturer's instructions at a flow rate 10 μL/min of running buffer (DPBS: Dulbecco's Phosphate Buffer Saline1X, GIBCO 14190, with 0.005% BIAcore surfactant P-20). The carboxylated matrix of the sensor chip was first activated with a 100 μL injection of 1:1 mixture of EDC (75 mg/mL N-ethyl-N-(dimethylamine-propyl)carbodiimide in water, from Biacore) and NHS (11.5 mg/mL N-hydroxysuccinimide in water, from Biacore). […] The excess reactive groups of the sensor chip were deactivated with an injection of 100 μL of ethanolamine (1.0M, from Biacore).
(§4) The binding signal obtained was proportional to the concentration of free antibody in solution at equilibrium.

[6] = molecular target: T4, hepcidin 20 (SEQ ID NO: 96); assay: BIAcore: 1 nM antibody preincubated with 10 nM of this hepcidin form in solution, then run over immobilized rhHepc surface; % = free antibody still binding the surface (low % = strong binding to the solution form)
Description: as §3, §4

[7] = molecular target: B4; assay: as above
Description: as §3, §4

[8] = molecular target: T1, recombinant cyno hepcidin (SEQ ID NO: 6); assay: BIAcore solution equilibrium: fixed rcynoHepc + varied antibody, free rcynoHepc read on immobilized antibody surface
Description: The immobilization was performed at a flow rate 10 uL/min of running buffer (DPBS: Dulbecco's Phosphate Buffer Saline1, GIBCO 14190, with 0.005% BIAcore surfactant P-20) according to manufacturer's instructions. The carboxylated matrix of the sensor chip was first activated with a 100 ul injection of 1:1 mixture of EDC (75 mg/mL N-ethyl-N-(dimethylamine-propyl)carbodiimide in water, from BIAcore) and NHS (11.5 mg/mL N-hydroxysuccinimide in water, from BIAcore). 180 ul of antibodies (˜20 ug/ml in 10 mM Na-acetate pH4.0) was injected to immobilize onto the sensor chip at 30 uL/min. The excess reactive groups of the sensor chip were deactivated with an injection of 100 uL of ethanolamine (1.0M, from BIAcore).
The binding signal obtained is proportional to the free rcynoHepc in solution at equilibrium. The equilibrium dissociation constant (KD) was calculated from nonlinear regression analysis of the competition curves using a one-curve one-site homogeneous binding model (KinEx™ software, Sapidyne Instruments Inc., Boise Id.).

[9] = molecular target: T4, hepcidin 20 (SEQ ID NO: 96); assay: BIAcore solution competition: 1 nM antibody preincubated with 10 nM antigen, then immobilized hepcidin surface; '-' = no inhibition by the solution form
Description: as §3, §4

[10] = molecular target: B1; assay: competitive binding assay: unlabeled human hepcidin against 0.25 nM biotinylated hepcidin for Ab2.7; standards in rabbit serum
Description: (§5) Hepcidin levels were determined using hepcidin standards of varying concentrations (from 1.4-300 ng/ml) spiked into buffer (5% BSA:I-block), rabbit serum, or pooled human serum. […] 25 μl/well of mixed solution was added to Black half area plates coated with 1-2 μg/mL G×M capture antibody. 25 μL/well of biotinylated hepcidin was added at 0.25 nM. The plate was covered with plate film sealer and incubated at room temperature (25° C.) on a plate shaker at around ≦200 RPM for around 60 minutes. The plate was washed and then 50 μL/well of Poly horseradish peroxidase amplification reagent at 1:2000 was added. The plate was allowed to sit for 30 minutes and was then washed with a plate washer using PBS or KPL buffer 6 times. The plate was patted dry and a luminescent substrate (Femto or Pico) was quickly added. The plate was read with luminometer (ex: Lmax 340) for 1 second using Femto or Pico Substrate. […] (FIG. 30).

[11] = molecular target: B1; assay: competitive binding assay: unlabeled human hepcidin against 0.25 nM biotinylated hepcidin for Ab2.7; standards in 5% BSA:I-block buffer
Description: as §5

B1
Kd [1]: ~0.016 nM
Kd [2]: 40 nM
Kd [3]: 0.11 nM
EC50 (read off the curve) [4]: ~10 ng/mL
Binding to Hepcidin Surface (%) [5]: 100%
Binding to Hepcidin Surface (%) [6]: 3%
Binding to Hepcidin Surface (%) [7]: 2%

B2
Kd [2]: 14 nM
Kd [3]: 0.56 nM
Kd [8]: ~0.1 nM
Binding to Hepcidin Surface (%) [5]: 100%
Binding to Hepcidin Surface (%) [6]: 100%
Binding to Hepcidin Surface (%) [7]: 11%
binding result [9]: no binding (tested: 10 nM)

B3
Kd [1]: ~0.009 nM
Kd [2]: 30 nM
Kd [3]: 0.05 nM
Binding to Hepcidin Surface (%) [5]: 100%
Binding to Hepcidin Surface (%) [6]: 1%
Binding to Hepcidin Surface (%) [7]: 0%

B4
IC50 (read off the curve) [10]: ~7 ng/mL
IC50 (read off the curve) [11]: ~7 ng/mL

B5
Kd [2]: 20 nM
Kd [3]: 21 nM
Kd [8]: ~10 nM
Binding to Hepcidin Surface (%) [5]: 100%
Binding to Hepcidin Surface (%) [6]: 88%
Binding to Hepcidin Surface (%) [7]: 79%
